This series concerns the molecule itself. As to the kind of experiment: SEC-MALS; Superdex 200 HR 10/30 coupled to MALS and refractive index detectors; 20 mM Tris-HCl pH 8.0, 150 mM NaCl; measured mass 103.72 kDa against 52.79 kDa theoretical monomer.

The values that follow come from article PMC6065307, “Structural dynamics of the transaminase active site revealed by the crystal structure of a co-factor free omega-transaminase from Vibrio fluvialis JS17” (Scientific Reports, 2018).

B1: ω-transaminase from Vibrio fluvialis JS17 (Vfat), apo (cofactor-free) form (enzyme, UniProt F2XBU9 1-453, looked up)
chain: MNKPQSWEARAETYSLYGFTDMPSLHQRGTVVVTHGEGPYIVDVNGRRYLDANSGLWNMVAGFDHKGLIDAAKAQYERFPGYHAFFGRMSDQTVMLSEKLVEVSPFDSGRVFYTNSGSEANDTMVKMLWFLHAAEGKPQKRKILTRWNAYHGVTAVSASMTGKPYNSVFGLPLPGFVHLTCPHYWRYGEEGETEEQFVARLARELEETIQREGADTIAGFFAEPVMGAGGVIPPAKGYFQAILPILRKYDIPVISDEVICGFGRTGNTWGCVTYDFTPDAIISSKNLTAGFFPMGAVILGPELSKRLETAIEAIEEFPHGFTASGHPVGCAIALKAIDVVMNEGLAENVRRLAPRFEERLKHIAERPNIGEYRGIGFMWALEAVKDKASKTPFDGNLSVSERIANTCTDLGLICRPLGQSVVLCPPFILTEAQMDEMFDKLEKALDKVFAEVA
notes: ω-transaminase (amine:pyruvate transaminase) from Vibrio fluvialis JS17; 'the coding region of Vfat' cloned into pET24ma; theoretical mass with the His-tag 52.79 kDa; Homodimer by MALS and in the crystal; also called apo Vfat; amine:pyruvate transaminase; source: E. coli BL21 (DE3), purified (Ni-NTA, Superdex 200 gel filtration); not shown: His-tag, C-terminal, kept
For orientation: stoichiometry N means a count of units in the complex or per binding partner. For the protein B1, the “stoichiometry N” value came to 2.
